According to IntAct's records for PubMed 10930573:

B1: Histidine kinase 1 (Arabidopsis thaliana (Mouse-ear cress)), Q9SXL4 (parent)
chain: MRGDSFSMSIENLPDSPMGSRKKKMQIRKVFDKMTEWVTPWRSNLESPREMMILRGDVEQDEFQYASSHCLSSYYSVFVVRLAIMVMLAILIGLLTVLTWHFTRIYTKQSLQTLAYGLRYELLQRPVLRMWSVLNTTSELTTAQVKLSEYVIKKYDKPTTQEELVEMYQAMKDVTWALFASAKALNAITINYRNGFVQAFHRDPASSSTFYIFSDLKNYSISGTGPEDVSGWNNKSIHGNMSAIWYQQQLDPVTGENLGKPLKIPPDDLINIAGISQVPDGEASWHVTVSKYMDSPLLSAALPVFDASNKSIVAVVGVTTALYSVGQLMRDLVEVHGGHIYLTSQEGYLLATSTDGPLLKNTSNGPQLMKATDSEEWVIKSGAQWLEKTYGSKRPHVVHAENVKLGDQRYYIDSFYLNLKRLPIVGVVIIPRKFIMGKVDERAFKTLIILISASVCIFFIGCVCILILTNGVSKEMKLRAELIRQLDARRRAEASSNYKSQFLANMSHELRTPMAAVIGLLDILISDDCLSNEQYATVTQIRKCSTALLRLLNNILDLSKVESGKLVLEEAEFDLGRELEGLVDMFSVQCINHNVETVLDLSDDMPALVRGDSARLVQIFANLISNSIKFTTTGHIILRGWCENINSLHDEMSVSVDRRKPWAPMKTKQVQHRNHLQKSCKNANKMVLWFEVDDTGCGIDPSKWDSVFESFEQADPSTTRTHGGTGLGLCIVRNLVNKMGGEIKVVQKNGLGTLMRLYLILSTPDTVDQNIQPDFSKYGLVVMLSMYGSTARMITSKWLRKHGIATVEASDWNELTQIIRDLLETGSRDNSFDSQHNISDPLRAELSNIVEIKNPVFVIVVDIGVLDLTTNIWKEQLNYLDRFSNKAKFAWLLKHDTSNTVKTELRRKGHVMMVNKPLYKAKMIQILEAVIKNRKRGLCNDLRNRGNGSDESHDCLEIDPTQFDTCSSDDSSETSGEKQVDKSVKPSTLHSPVLKNYLIDATTSNDDSTSASMTQKNPEEEDWKDRLYSGIALDGKNQKSLEGIRILLAEDTPVLQRVATIMLEKMGATVTAVWDGQQAVDSLNYKSINAQAPTEEHKSFEEETANKVTTRETSLRNSSPYDLILMDCQMPKMDGYEATKAIRRAEIGTELHIPIVALTAHAMSSDEAKCLEVGMDAYLTKPIDRKLMVSTILSLTKPSAFQTSLSA
partner: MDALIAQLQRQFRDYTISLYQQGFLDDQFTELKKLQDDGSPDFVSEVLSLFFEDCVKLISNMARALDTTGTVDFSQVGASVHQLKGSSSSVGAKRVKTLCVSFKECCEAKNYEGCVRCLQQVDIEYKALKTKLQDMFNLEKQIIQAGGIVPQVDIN

Variants of: B1
Details: with ahp2_arath AHP2, Q9ZNV8

effect of a mutation on the interaction | Variant
disrupting interaction | D1075E
